Legend:
[1] = target: the molecule itself; assay: cross-linking; intermolecular disulphide between Cys24 of two LexA(M24C) subunits on oxidation with 0.5 mM 1,10-phenanthroline and 0.1 mM CuSO4, 30 min, room temperature
LexA wt = LexA wt (UniProt P0A7C2 1-202); assay: SPR; 150 nM LexA; LexA-operator SPR: 20 mM NaH2PO4 pH 7.3, 0.14 M NaCl, 0.005% P20, 25 C; RecA-SKBT25: 20 mM NaH2PO4 pH 7.3, 1 mM ATPgS, 2 mM MgCl2, 0.05 mM Ellman's reagent, on; settings: protein: recombinant; chain copies: 2; label: 3' TEG-biotin on S9; S7 pairs with the 3' 24 nt and S9 with the 5' 15 nt of S10; nick between S7 and S9; blunt

Binder | binding result [1] | binding result (LexA wt)
LexA(M24C), oxidized (disulphide-locked dimer in the DNA-binding state) (natural protein, E. coli, UniProt P0A7C2 1-202, looked up, intermolecular disulphide bond between the Cys24 residues of the two subunits, LexA repressor, E. coli, single-cysteine mutant M24C; The reduced form (20 mM DTT) was also used in the cleavage assay but is not made a molecule here; also called oxidized LexA(M24C); source: overexpressed from plasmid pLexAM24C, purified (Ni-NTA); oxidized with 0.5 mM 1,10-phenanthroline and 0.1 mM CuSO4, 30 min, room temperature) MKALTARQQEVFDLIRDHISQTGCPPTRAEIAQRLGFRSPNAAEEHLKALARKGVIEIVSGASRGIRLLQEEEEGLPLVGRVAAGEPLLAQQHIEGHYQVDPSLFKPNADFLLRVSGMSMKDIGIMDGDLLAVHKTQDVRNGQVVVARIDDEVTVKRLKKQGNKVELLPENSEFKPIVVDLRQQSFTIEGLAVGVIRNGDWL | binds | –
tisB operator SPR fragment (dsDNA) DNA 1: GTTACTACTCGAGCGATTACTGTTTATTTATACAGTAAA DNA 2: TTTACTGTATAAATAAACAGTAAT DNA 3: CGCTCGAGTAGTAAC | – | binds

— article PMC3834820, “Structural insight into LexA–RecA* interaction” (Nucleic Acids Research, 2013)
